Results: publication PMC8646926 (Advanced Biology, 2021)

Molecular target: the molecule itself
Assay: 15N-1H HSQC NMR (line broadening and signal loss)

B1: SARS-CoV-2 Nsp9, wild type, purified recombinant (natural protein, UniProt P0DTD1 4141-4253, looked up)
chain: NNELSPVALRQMSCAAGTTQTACTDDNALAYYNTTKGGRFVLALLSDLQDLKWARFPKSDGTGTIYTELEPPCRFVTDTPKGPKVKYLYFIKGLNNLNRGMVLGSLAATVRLQ
modifications: 15N or 13C,15N isotope labelling in the NMR experiments
Does B1 bind?
Result: binds
